Measurements from publication doi:10.1101/2021.05.06.441297.

Biological target: fluorescently labeled non-covalent analog of peptide 5 (UniProt P46937)
Experiment: fluorescence polarisation

Chain of UniProt P46937 (P46937 whole entry, looked up, tested part not stated): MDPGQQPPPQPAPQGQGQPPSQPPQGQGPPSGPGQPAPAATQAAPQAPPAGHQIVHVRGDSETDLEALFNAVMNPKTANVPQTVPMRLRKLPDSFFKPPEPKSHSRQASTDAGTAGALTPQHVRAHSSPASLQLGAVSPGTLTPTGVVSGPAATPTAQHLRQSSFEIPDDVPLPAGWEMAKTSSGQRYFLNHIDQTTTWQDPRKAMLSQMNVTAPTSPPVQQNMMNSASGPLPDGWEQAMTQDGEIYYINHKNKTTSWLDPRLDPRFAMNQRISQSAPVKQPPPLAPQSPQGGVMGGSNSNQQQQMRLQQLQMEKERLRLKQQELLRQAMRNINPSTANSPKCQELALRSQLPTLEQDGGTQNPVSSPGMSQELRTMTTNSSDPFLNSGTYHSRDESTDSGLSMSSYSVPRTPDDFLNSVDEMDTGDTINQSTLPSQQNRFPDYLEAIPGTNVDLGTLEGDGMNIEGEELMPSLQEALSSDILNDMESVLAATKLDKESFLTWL

Kd: 106 nM
Substance: 14-3-3σ full length (1-248) (natural protein)
